Measured values as given in patent US9365620B2, “Methods for treating pain” (NoNO NC., priority 2008, dated 2016).

Columns and labels:
N-type calcium channels = N-type calcium channels (Mus musculus, UniProt O55017); type: cell-based, Swiss mice
IL-8RB = biological target: T1, IL-8RB (Homo sapiens, UniProt P25025); assay: Competitive binding assay, IL-8/IL-8RB; conditions: peptide at 10 μM
T1 sequence (P25025 1-360): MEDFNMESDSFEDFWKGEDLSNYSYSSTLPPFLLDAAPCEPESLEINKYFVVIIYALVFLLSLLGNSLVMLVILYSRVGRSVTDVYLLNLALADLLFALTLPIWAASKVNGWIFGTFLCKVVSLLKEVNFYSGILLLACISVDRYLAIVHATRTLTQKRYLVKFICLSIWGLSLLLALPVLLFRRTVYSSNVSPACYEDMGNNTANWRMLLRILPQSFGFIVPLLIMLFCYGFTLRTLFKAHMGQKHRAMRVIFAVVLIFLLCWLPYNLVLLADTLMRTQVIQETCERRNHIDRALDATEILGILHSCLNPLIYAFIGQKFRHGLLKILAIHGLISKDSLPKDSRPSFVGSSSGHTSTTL

Sequence	Ca^2+ current shown as a percentage (N-type calcium channels)	inhibition of N-type calcium channel activity (N-type calcium channels)	inhibition of IL-8/IL-8RB (IL-8RB) [%]	frequency (use) dependence of block of Ca^2+ currents (N-type calcium channels)	voltage dependence of inhibition of Ca^2+ current (N-type calcium channels)
FGRKKRRQRRRKLSSIESDV (synthetic 1993 peptide F-Tat-NR2B9c) [Peptide 1993, variant in which the Y residue at position 1 of Tat-NR2B9c was mutated to F]	91+/−1.6%	no significant inhibition			
YGRKKRRQRRRKLSSIESDV [Tat-NR2B9c] (Synthetic peptide Tat-NR2B9c) [chimeric peptide of a standard tat peptide and …]	68+/−1.7%		80	not frequency dependent	voltage-independent manner
